The subject of series [1] is HeLa Kyoto. Description: solubility in G1/S (NP-40 vs SDS abundance) (log2 ratio); higher = more soluble. Conditions: cell cycle stage: G1/S.
Series [2] has as its system HeLa Kyoto. Description: thermal stability score vs G1/S (z-score of summed log2 fold changes over temperatures); higher = more thermally stable than in G1/S.
For series [3], the system named is HeLa Kyoto. Put plainly: solubility change mitosis vs G1/S (difference of NP-40 vs SDS log2 ratios) (log2 ratio difference); higher = more soluble in mitosis.
The test system of series [4] is HeLa Kyoto. Put plainly: melting temperature (median over replicates), in situ; higher = more thermally stable.
The mark [5] stands for this setting: cell cycle stage: early G1 (4.5 h after nocodazole release).
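Throughout, for melting temperature (median over replicates), in situ: HeLa Kyoto cells synchronized by double thymidine or nocodazole block, proteins quantified by TMT10plex mass spectrometry, three independent biological replicates.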
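Throughout, for solubility change mitosis vs G1/S (difference of NP-40 vs SDS log2 ratios): synchronized HeLa Kyoto cells (double thymidine block for G1/S, nocodazole release for mitosis), protein amounts in NP-40 versus SDS lysates quantified by mass spectrometry, three biological replicates.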
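Throughout, for solubility in G1/S (NP-40 vs SDS abundance): HeLa Kyoto cells arrested at G1/S by double thymidine block, proteins quantified by TMT10plex mass spectrometry in mild NP-40 versus SDS extracts, three biological replicates.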
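Throughout, for thermal stability score vs G1/S (z-score of summed log2 fold changes over temperatures): synchronized HeLa Kyoto cells, proteins quantified by TMT10plex mass spectrometry, three biological replicates, mitosis taken 0.5 h after nocodazole release, G1/S directly after double thymidine block.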

Consider “MAVVIRLLGLPFIAGPVDIRHFFTGLTIPDGGVHIIGGEIGEAFIIFATDEDARRAISRSGGFIKDSSVELFLSSKAEMQKTIEMKRTDRVGRGRPGSGTSGVDSLSNFIESVKEEASNSGYGSSINQDAGFHTNGTGHGNLRPRKTRPLKAENPYLFLRGLPYLVNEDDVRVFFSGLCVDGVIFLKHHDGRNNGDAIVKFASCVDASGGLKCHRSFMGSRFIEVMQGSEQQWIEFGGNAVKEGDVLRRSEEHSPPRGINDRHFRKRSHSKSPRRTRSRSPLGFYVHLKNLSLSIDERDLRNFFRGTDLTDEQIRFLYKDENRTRYAFVMFKTLKDYNTALSLHKTVLQYRPVHIDPISRKQMLKFIARYEKKRSGSLERDRPGHVSQKYSQEGNSGQKLCIYIRNFPFDVTKVEVQKFFADFLLAEDDIYLLYDDKGVGLGEALVKFKSEEQAMKAERLNRRRFLGTEVLLRLISEAQIQEFGVNFSVMSSEKMQARSQSRERGDHSHLFDSKDPPIYSVGAFENFRHQLEDLRQLDNFKHPQRDFRQPDRHPPEDFRHSSEDFRFPPEDFRHSPEDFRRPREEDFRRPSEEDFRRPWEEDFRRPPEDDFRHPREEDWRRPLEEDWRRPLEEDFRRSPTEDFRQLPEEDFRQPPEEDLRWLPEEDFRRPPEEDWRRPPEEDFRRPLQGEWRRPPEDDFRRPPEEDFRHSPEEDFRQSPQEHFRRPPQEHFRRPPPEHFRRPPPEHFRRPPPEHFRRPPPEHFRRPPPEHFRRPPPEHFRRPPQEHFRRPPQEHFRRSREEDFRHPPDEDFRGPPDEDFRHPPDEDFRSPQEEDFRCPSDEDFRQLPEEDLREAPEEDPRLPDNFRPPGEDFRSPPDDFRSHRPFVNFGRPEGGKFDFGKHNMGSFPEGRFMPDPKINCGSGRVTPIKIMNLPFKANVNEILDFFHGYRIIPDSVSIQYNEQGLPTGEAIVAMINYNEAMAAIKDLNDRPVGPRKVKLTLL [RBM12B]”, for which, in series [1], the “solubility in G1/S (log2)” value is -0.972. Further, the thermal stability score in series [2] (setting [5]) came to 0.194; in series [2] (cell cycle stage: mitosis), 1.05. Also, the “solubility change mitosis (log2)” value in series [3] was determined as 0.191. Moreover, the melting temperature was 47.6 °C in series [4] (cell cycle stage: G1/S) and 49.7 °C in series [4] (cell cycle stage: mitosis).

Turning to “MAWALKLPLADEVIESGLVQDFDASLSGIGQELGAGAYSMSDVLALPIFKQEESSLPPDNENKILPFQYVLCAATSPAVKLHDETLTYLNQGQSYEIRMLDNRKLGELPEINGKLVKSIFRVVFHDRRLQYTEHQQLEGWRWNRPGDRILDIDIPMSVGIIDPRANPTQLNTVEFLWDPAKRTSVFIQVHCISTEFTMRKHGGEKGVPFRVQIDTFKENENGEYTEHLHSASCQIKVFKPKGADRKQKTDREKMEKRTPHEKEKYQPSYETTILTECSPWPEITYVNNSPSPGFNSSHSSFSLGEGNGSPNHQPEPPPPVTDNLLPTTTPQEAQQWLHRNRFSTFTRLFTNFSGADLLKLTRDDVIQICGPADGIRLFNALKGRMVRPRLTIYVCQESLQLREQQQQQQQQQQKHEDGDSNGTFFVYHAIYLEELTAVELTEKIAQLFSISPCQISQIYKQGPTGIHVLISDEMIQNFQEEACFILDTMKAETNDSYHIILK [TFCP2]”, the “solubility in G1/S (log2)” value in series [1] was -0.0776. In addition, the thermal stability score was 0.94 in series [2] (setting [5]) and 2.72 in series [2] (cell cycle stage: mitosis). In series [3], the “solubility change mitosis (log2)” value was -0.0306. Also, the melting temperature stood at 48.2 °C in series [4] (cell cycle stage: G1/S) and 48.6 °C in series [4] (cell cycle stage: mitosis).

For “MAWTKYQLFLAGLMLVTGSINTLSAKWADNFMAEGCGGSKEHSFQHPFLQAVGMFLGEFSCLAAFYLLRCRAAGQSDSSVDPQQPFNPLLFLPPALCDMTGTSLMYVALNMTSASSFQMLRGAVIIFTGLFSVAFLGRRLVLSQWLGILATIAGLVVVGLADLLSKHDSQHKLSEVITGDLLIIMAQIIVAIQMVLEEKFVYKHNVHPLRAVGTEGLFGFVILSLLLVPMYYIPAGSFSGNPRGTLEDALDAFCQVGQQPLIAVALLGNISSIAFFNFAGISVTKELSATTRMVLDSLRTVVIWALSLALGWEAFHALQILGFLILLIGTALYNGLHRPLLGRLSRGRPLAEESEQERLLGGTRTPINDAS [SLC35F6]”, the “solubility in G1/S (log2)” value in series [1] is -0.144. Moreover, the thermal stability score was -2.27 in series [2] (setting [5]) and -5.04 in series [2] (cell cycle stage: mitosis). In series [3], the “solubility change mitosis (log2)” value was -0.0109. In addition, the melting temperature came out at 60.1 °C in series [4] (cell cycle stage: G1/S) and 56 °C in series [4] (cell cycle stage: mitosis).

Consider “MAWVLKMDEVIESGLVHDFDASLSGIGQELGAGAYSMSDVLALPIFKQEDSSLPLDGETEHPPFQYVMCAATSPAVKLHDETLTYLNQGQSYEIRMLDNRKMGDMPEINGKLVKSIIRVVFHDRRLQYTEHQQLEGWKWNRPGDRLLDLDIPMSVGIIDTRTNPSQLNAVEFLWDPAKRTSAFIQVHCISTEFTPRKHGGEKGVPFRIQVDTFKQNENGEYTDHLHSASCQIKVFKPKGADRKQKTDREKMEKRTAHEKEKYQPSYDTTILTEMRLEPIIEDAVEHEQKKSSKRTLPADYGDSLAKRGSCSPWPDAPTAYVNNSPSPAPTFTSPQQSTCSVPDSNSSSPNHQGDGASQTSGEQIQPSATIQETQQWLLKNRFSSYTRLFSNFSGADLLKLTKEDLVQICGAADGIRLYNSLKSRSVRPRLTIYVCREQPSSTVLQGQQQAASSASENGSGAPYVYHAIYLEEMIASEVARKLALVFNIPLHQINQVYRQGPTGIHILVSDQMVQNFQDESCFLFSTVKAESSDGIHIILK [UBP1]”, for which the “solubility in G1/S (log2)” value in series [1] came to 0.06. The values for the thermal stability score in series [2] (setting [5]) and in series [2] (cell cycle stage: mitosis) were -0.25 and -0.0933, respectively. In series [3], the “solubility change mitosis (log2)” value came to 0.0235. The melting temperature in series [4] (cell cycle stage: G1/S) was determined as 50.5 °C; in series [4] (cell cycle stage: mitosis), 48.3 °C.

Regarding “MAYAYLFKYIIIGDTGVGKSCLLLQFTDKRFQPVHDLTIGVEFGARMITIDGKQIKLQIWDTAGQESFRSITRSYYRGAAGALLVYDITRRDTFNHLTTWLEDARQHSNSNMVIMLIGNKSDLESRREVKKEEGEAFAREHGLIFMETSAKTASNVEEAFINTAKEIYEKIQEGVFDINNEANGIKIGPQHAATNATHAGNQGGQQAGGGCC [RAB2A]”, in series [1], the “solubility in G1/S (log2)” value is -0.194. Moreover, the thermal stability score in series [2] (setting [5]) was -2.08; in series [2] (cell cycle stage: mitosis), -3.49. The “solubility change mitosis (log2)” value in series [3] was -0.118. Moreover, the melting temperature in series [4] (cell cycle stage: G1/S) is 59.9 °C; in series [4] (cell cycle stage: mitosis), 61 °C.
